In article PMC7344962 (Antibodies, 2020) one finds Kd data, which are given here for five molecules.

“And” between values parts separate entries of the source, which are not always exact repeats. Equal values may be shown once.

B1: scFv S1A0 (scFv, V domains shown)
VH: QVQLQQSGAELVRPGVSVKISCKGSGYTFTDYGMHWVKQSHAKSLEWIGIISTYSGDASYNQKFKGKATMTVDKSSSTAYMELARLTSEDSAIYYCARSSTWYYFDYWGQGTTLTVSS
VL: DIQVTQTTSSLSASLGDRVTISCRASQDISNYLNWYQQKPDGTVKLLIYYTSRLHSGVPSRFSGSGSGTDYSLTISNLEQEDIATYFCQQGNTLPYTFGGGTKLEIK
notes: VH A: wild-type heavy variable domain of the murine monoclonal IgG2a antibody 4F11E12 (anti-SAG1); the antibody is also in PDB 1YNT; (Gly4Ser)3 peptide linker; VL 0: wild-type light variable domain of the murine monoclonal IgG2a antibody 4F11E12 (anti-SAG1); VH-linker-VL orientation; also called wild-type scFv; WT scFv; source: E. coli HB2151 periplasm, purified (HisTrap HP); not shown: …
B2: scFv S1A4 (scFv, V domains shown)
VH: QVQLQQSGAELVRPGVSVKISCKGSGYTFTDYGMHWVKQSHAKSLEWIGIISTYSGDASYNQKFKGKATMTVDKSSSTAYMELARLTSEDSAIYYCARSSTWYYFDYWGQGTTLTVSS
VL: DIQMTQTPSSLSASLGDRVTISCRASQDISNYLNWYQQKPDGTVKLLIYYTSRLHSGVPSRFSGSGSGTDYSLTISNLEPEDIATYYCQQGNTLPYTFGGGTKLEIK
notes: VH A: as the VH of m1 (wild-type VH of 4F11E12); (Gly4Ser)3 peptide linker; VL 4: as VL 0 of m1 with the stated changes; numbers count on: IMGT numbering; VH-linker-VL orientation; source: E. coli HB2151 periplasm; periplasmic extract loaded on HiScreen Capto L, purified; not shown: Gly3AlaSerHis6, C-terminal, kept
B3: scFv S1D4 (scFv, V domains shown)
VH: QVQLQQSGAELVRPGTSVKISCKASGYTFTDYGMHWVKQRPGHGLEWIGIISTYSGDASYNQKFKGKATMTVDKSSSTAYMQLSSLTSEDSAVYYCARSSTWYYFDYWGQGTLVTVSA
VL: DIQMTQTPSSLSASLGDRVTISCRASQDISNYLNWYQQKPDGTVKLLIYYTSRLHSGVPSRFSGSGSGTDYSLTISNLEPEDIATYYCQQGNTLPYTFGGGTKLEIK
notes: VH D: as VH A of m1 with the cluster II and cluster III substitutions (VH Z without cluster I); numbers count on: IMGT numbering; (Gly4Ser)3 peptide linker; VL 4: as VL 0 of m1 with the stated changes; VH-linker-VL orientation; source: E. coli HB2151 periplasm; periplasmic extract loaded on HiScreen Capto L, purified; not shown: Gly3AlaSerHis6, C-terminal, kept
B4: scFv S1B4 (scFv, V domains shown)
VH: QVQLQQSGAELVRPGTSVKISCKASGYTFTDYGMHWVKQSHAKSLEWIGIISTYSGDASYNQKFKGKATMTVDKSSSTAYMQLSSLTSEDSAVYYCARSSTWYYFDYWGQGTLVTVSA
VL: DIQMTQTPSSLSASLGDRVTISCRASQDISNYLNWYQQKPDGTVKLLIYYTSRLHSGVPSRFSGSGSGTDYSLTISNLEPEDIATYYCQQGNTLPYTFGGGTKLEIK
notes: VH B: as VH A of m1 with only the cluster III substitutions; (Gly4Ser)3 peptide linker; VL 4: as VL 0 of m1 with the stated changes; numbers count on: IMGT numbering; VH-linker-VL orientation; source: E. coli HB2151 periplasm; periplasmic extract loaded on HiScreen Capto L, purified; not shown: Gly3AlaSerHis6, C-terminal, kept
B5: scFv S1C4 (scFv, V domains shown)
VH: QVQLQQSGAELVRPGVSVKISCKGSGYTFTDYGMHWVKQRPGHGLEWIGIISTYSGDASYNQKFKGKATMTVDKSSSTAYMELARLTSEDSAIYYCARSSTWYYFDYWGQGTTLTVSS
VL: DIQMTQTPSSLSASLGDRVTISCRASQDISNYLNWYQQKPDGTVKLLIYYTSRLHSGVPSRFSGSGSGTDYSLTISNLEPEDIATYYCQQGNTLPYTFGGGTKLEIK
notes: VH C: as VH A of m1 with only the cluster II substitutions (C-C' loop); numbers count on: IMGT numbering; (Gly4Ser)3 peptide linker; VL 4: as VL 0 of m1 with the stated changes; VH-linker-VL orientation; source: E. coli HB2151 periplasm; periplasmic extract loaded on HiScreen Capto L, purified; not shown: Gly3AlaSerHis6, C-terminal, kept

T1 sequence (P13664 48-336): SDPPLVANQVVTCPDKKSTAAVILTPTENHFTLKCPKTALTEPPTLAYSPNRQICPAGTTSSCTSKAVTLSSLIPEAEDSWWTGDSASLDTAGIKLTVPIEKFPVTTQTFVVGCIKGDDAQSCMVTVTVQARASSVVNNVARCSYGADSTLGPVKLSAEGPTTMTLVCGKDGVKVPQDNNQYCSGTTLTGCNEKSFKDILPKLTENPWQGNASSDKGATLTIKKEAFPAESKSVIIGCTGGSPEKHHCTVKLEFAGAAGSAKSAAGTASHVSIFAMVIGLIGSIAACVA

This test concerns the target T1, major surface antigen 1 (SAG1) of Toxoplasma gondii (Toxoplasma gondii, strain , UniProt P13664).
T1 construct: major surface antigen 1 (SAG1) of Toxoplasma gondii; SAG1 in complex with the parent antibody is in PDB 1YNT (cited); also called antigen SAG1
The experiment in a line: SPR; SAG1 covalently immobilised (1000 RU, EDC/NHS) on a CM5S chip; T200, 25 °C, HBS-EP+; single cycle kinetics with scFv at 600-200-66-22-7.5 nM, 50 µL/min; Langmuir 1:1 then two-state fitting model, similar Kd values in both. The note with it: both partners purified. A general note: In SPR one partner is held on a chip, and binding of the other changes the refractive index at the surface.
In the case of B1, the Kd (in general, the concentration at which binding is half-saturated) is around 200 nM. B2 registered a Kd of around 200 nM. On to B3, for which the Kd is around 200 nM. With B4 the figure was around 200 nM; with B5, ~200 nM and < 100 nM.
